Results on three molecules are retold here after paper PMC10433963, “Interactome Analysis Identifies MSMEI_3879 as a Substrate of Mycolicibacterium smegmatis ClpC1” (Microbiology Spectrum, 2023).

The experiment has as its target T1, ^H7-SUMOClpC1^FLAG (recombinant ClpC1) (M. smegmatis, UniProt A0R574 1-848).
T1 construct: ClpC1 unfoldase, M. smegmatis; used at 0.1 uM (hexamer) in microscale thermophoresis; In the degradation assays (functional rows) ClpC1 stood with ClpP1P2 and its H7-SUMO tag may have been removed; not shown: H7-SUMO, N-terminal, kept; FLAG, C-terminal, kept
The experiment in a line: MST; Monolith NT.115; 0.1 uM ^H7-SUMOClpC1^FLAG (hexamer) with 0.1 uM His Lite OG488-Tris-NTA-Ni dye, partner titrated; fit to a Hill-form binding equation; apparent (Kapp). The following applies: both partners purified.

T1 sequence (A0R574 whole entry): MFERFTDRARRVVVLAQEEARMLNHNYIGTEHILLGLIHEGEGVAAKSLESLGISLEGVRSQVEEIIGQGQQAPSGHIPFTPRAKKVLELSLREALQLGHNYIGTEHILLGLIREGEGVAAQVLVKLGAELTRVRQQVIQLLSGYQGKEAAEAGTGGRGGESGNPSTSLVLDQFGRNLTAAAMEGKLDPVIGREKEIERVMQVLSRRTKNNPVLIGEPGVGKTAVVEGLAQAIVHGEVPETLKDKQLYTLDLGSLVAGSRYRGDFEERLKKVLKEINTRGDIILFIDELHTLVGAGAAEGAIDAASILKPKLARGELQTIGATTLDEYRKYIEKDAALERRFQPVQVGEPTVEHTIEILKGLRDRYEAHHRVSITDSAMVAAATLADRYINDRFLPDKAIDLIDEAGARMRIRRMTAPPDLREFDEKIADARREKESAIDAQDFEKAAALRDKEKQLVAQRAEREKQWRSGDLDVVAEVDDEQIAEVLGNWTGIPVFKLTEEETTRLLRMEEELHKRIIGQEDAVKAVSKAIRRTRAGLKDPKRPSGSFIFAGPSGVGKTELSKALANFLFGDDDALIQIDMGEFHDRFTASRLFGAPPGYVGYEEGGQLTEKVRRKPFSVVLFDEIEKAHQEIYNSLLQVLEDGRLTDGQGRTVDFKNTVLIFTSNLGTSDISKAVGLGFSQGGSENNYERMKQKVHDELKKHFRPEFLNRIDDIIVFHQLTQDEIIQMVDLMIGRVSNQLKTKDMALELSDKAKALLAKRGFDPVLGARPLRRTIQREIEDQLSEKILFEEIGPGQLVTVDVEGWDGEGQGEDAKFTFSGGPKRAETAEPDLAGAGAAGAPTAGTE

B1: XRE (recombinant) (natural protein, M. smegmatis, UniProt A0QQY3 1-142, looked up)
chain: MAQDENLAAVVSNAAQDIGSFIRAQREAAQVSVRQLAEKAGVSNPYLSQIERGLRKPSADVLNQIAKALRVSAEVLYVRAGILEPSEPSEVRDAIVNDVSITERQKQVLLDIYTSFRQQNEAAGEPEGAAVIPSPDEEPATD
notes: H7-SUMO tags were removed with Ulp1 or left intact for microscale thermophoresis; also called Transcriptional regulator, XRE family protein
On to B1, for which the binding result is given as “binds”.

B2: DnaJ1 (recombinant) (natural protein, M. smegmatis, UniProt A0QQD0 1-390, looked up)
chain: MAQREWVEKDFYKELGVSSDASADEIKKAYRKLAAELHPDRNSDPGAAERFKAVSEANSVLSDPAKRKEYDETRRLFAGGFGRRFNQGGGGFGGGFGSDGVEFNLGDLFDAAGQTGGANIGDLFGGLFGRGPQQRPSRPRRGNDLETETELSFLEATKGVAMPLRLTSPAPCTNCHGSGARPGTSPKVCPSCNGSGVISRNQGAFGFSEPCTECRGSGSIIEHPCQECRGTGVTTRTRTINVRIPPGVEDGQRIRLAGQGEAGLRGAPSGDLYVTVHVRPDKVFGRDGDDLTVTVPVSFHELALGTTLSVPTLDGKVGVRVPKGTSDGRILRVRGRGVPKRSGGHGDLLVTVKVAVPPNLEGEAAEALEAYAKAERASGFDPRAGWAGNV
notes: H7-SUMO tags were removed with Ulp1 or left intact for microscale thermophoresis; also called Chaperone protein DnaJ1
As to B2, the binding result is “binds”.

B3: Magnesium chelatase (recombinant) (natural protein, M. smegmatis, UniProt A0R3L1 1-461, looked up)
chain: MVSQPKDLPRTVGELRASGHRERGVKAEIRENLLAALAERRDVWPGILGFEDTVIPQLERALIAGHDVVLLGERGQGKTRLLRALTGLLDEWTPVIAGSELGEHPYSPITPESIRRAADSGDDLPVEWRHRSERYTEKLATPDTSVADLVGDIDPIKVAEGRSLGDPETIAYGLIPRAHRGIVAVNELPDLAERIQVAMLNVMEERDIQVRGYTLRLPLDVLVVASANPEDYTNRGRIITPLKDRFGAEIRTHYPLELEAEVGVIRQEAELAAEVPEYLLAVLARFARNLRESNSIDQRSGVSARFAIAAAETVAASARHRAAILGEDDPVARVVDLGTVIDVLRGKLEFETGEEGREQAVLEHLLRRATADTAQRLLGGIDVGPLVAAIEEGSPVTTGERVSAKDVVAALPDLPAIDAIAHRLNAVSVGQRAAAIELALEALYLAKRIDKVSGEGETVYG
notes: H7-SUMO tags were removed with Ulp1 or left intact for microscale thermophoresis; also called Mg chelatase
As to B3, the binding result is reported as “binds”.
